Measured values from paper PMC1847435, “Structural investigations of the ferredoxin and terminal oxygenase components of the biphenyl 2,3-dioxygenase from Sphingobium yanoikuyae B1” (BMC Structural Biology, 2007).

B1: Biphenyl 2,3-dioxygenase from Sphingobium yanoikuyae strain B1, terminal oxygenase α subunit (enzyme)
chain: MSSDATLVDTVNASQSRQVFWDEDVYALEIERIFSRAWLMLGHESLVPKPGDFITTYMAEDKVILSHQSDGTFRAFINSCSHRGNQICHADSGNAKAFVCNYHGWVFGQDGSLVDVPLESRCYHNSLDKQKLAAKSVRVETYKGFIFGCHDPEAPSLEDYLGEFRYYLDTIWEGAGGGMELLGPPMKSLLQCNWKVPAENFIGDGYHVGWTHAAALSQIGGELAGLAGNRADIPFDDLGLQFTTRHGHGFGVIDNAAAGLHIKREGWTKFLEDTRGEVRRKFGPERERLYLGHWNCSIFPNCSFLYGTNTFKIWHPRGPHEIEVWTYTIVPRDADPATKSMIQREAIRTFGTAGTLESDDGENMSSATYINRGVITRNGRMNSTMGVGYEGPHPVYPGIVGISFIGETSYRGFYRFWKEMIDAPDWASVKANDDTWDSVFPNRNFWNEKLNAAE
notes: α subunit of biphenyl 2,3-dioxygenase (BPDO-OB1), Sphingobium yanoikuyae B1, encoded by bphA1f; the α subunit consists of 454 residues; residues 6-454 modelled in the structure; Co-expressed with the β subunit (bphA1fA2f in one vector); also called BPDO-OB1 α subunit; source: cloned from B1 into pET101D, expressed as described in Yu et al. [45], purified

What was measured:
[1] = target: B1; test: crystal structure; purified BPDO-OB1 at 20 mg/ml in 20 mM potassium phosphate pH 6.8; space group P3(1)21, complete α3β3 in the asymmetric unit; native (1.70 Å) and biphenyl-soaked crystals; conditions: both partners purified
[2] = target: the molecule itself; test: as above

Binder | binding result [1] | stoichiometry N [2]
Biphenyl 2,3-dioxygenase from Sphingobium yanoikuyae strain B1, terminal oxygenase β subunit (enzyme, β subunit of biphenyl 2,3-dioxygenase (BPDO-OB1), Sphingobium yanoikuyae B1, encoded by bphA2f; residues 5-174 modelled in the structure; Co-expressed with the α subunit (bphA1fA2f in one vector); also called BPDO-OB1 β subunit; source: cloned from B1 into pET101D, expressed as described in Yu et al. [45], purified) MSSEQIPVTPDVHYDIEAHYRAEVRMFQTGQYREWLQGMVAEDIHYWMPIYEQRLTRDRRPDPTPDDAAIYNDDFGELKQRVERLYSGQVWMEDPPSKIRYFVSNVEAFEAGNGELDVLSNILVYRNRRQTEVTVHTLGREDKLRRDGNGFKVFRRKLILDARVTQDKNLYFFC | binds | 3
B1 | – | 3
